# Experimental data published in FireProtDB (doi:10.1021/bi034486i).
# B1: Thioredoxin-like protein 4A, P83876 (parent)
# chain: MSYMLPHLHNGWQVDQAILSEEDRVVVIRFGHDWDPTCMKMDEVLYSIAEKVKNFAVIYLVDITEVPDFNKMYELYDPCTVMFFFRNKHIMIDLGTGNNNKINWAMEDKQEMVDIIETVYRGARKGRGLVVSPKDYSTKYRY
# Variants of: B1
# Conditions: Homo sapiens; pH 7.82; 20 °C; GdnHCl; CD; sodium phosphate 50 mM; structure 1QGV; whole UniProt chain shown
Variant,ddG of mutation (higher = less stable) [kcal/mol],denaturant m value [kcal/mol/M],denaturant midpoint (higher = more stable) [M],unfolding free energy [kcal/mol]
G126D,1.71,2.78,3.36,9.34
